Patent publication US20150086555A1 (THERACLONE SCIENCES, published 2015)
Residue numbers refer to the chain shown, from its start.

B1: TCN-528 (5087_P17) (antibody, V domains shown)
VH: QVQLVQSGSEVKKPGASVKVSCKASGYTFTNYDINWIRQAPGQGLEWMGWINPNSGTTGSAQRFQGRVTITVDTSITTVYMELSSLRSDDTAIYYCARGRELLRLQHFLTDSQSERRDCFDPWGQGTLVTVSS
VL: DIQMTQSPSSLSASVGDRVTITCRANQDIGIYLNWYQQNPGKVPKLLLHGASSLQGGVPSRFSASGSGTDFTLTIHSLQPEDLATYYCQQSRRLPYTFGQGTRVELK
B2: TCN-555 (5246_L16) (antibody, V domains shown)
VH: QVQLVQSGAEVKRPGSSVKVSCTASGGIFRKNAISWVRQAPGQGLEWMGGIIAVFNTANYAQKFQNRVKITADESGNTAYMELSSLTSDDTAVYYCASHPKYFYGSGSYPDFWGQGTLVTVSS
VL: QSALTQPRSVSGSPGQSITISCTGGSSDIGASNSVSWYQQHPGKAPKLVIFDVTERPSGVPHRFSGSKSGNTASLTVSGLQPDDEADYFCCAYGGKYLVVFGGGTKVTVL
B3: TCN-563 (5237_B21) (antibody, V domains shown)
VH: B2 VH with V5A, N66G, T87R
VL: B2 VL with I18V, G25S, I29V, F51Y, D83E
B4: TCN-540 (5060_F05) (antibody, V domains shown)
VH: QVQLVQSGGGVVQPGRSLRLSCAASGFTFSSYAMHWVRQAPGKGLEWVAIISYDGNDQYYTDSVKGRFTISRDSSKVYLQMHRLRPEDTAVYYCAKEFETSGYFHGSFDYWGQGILVTVSS
VL: QSALTQPASVSGSPGQSITISCTGTSSDVGGYNYVSWYQQHPGKAPKLLIYEVTNWPSGVSNRFSGSKSGNTASLTISGLQAEDEADYYCSSYAGSSTWVFGGGTRVTVL
B5: TCN-545 (5082_I15) (antibody, V domains shown)
VH: QVQLQQWGAGLLKPSETLSLSCAVFGGSFSDYYWTWIRQPPGKGLEWIGEIKHSGRTNYNPSLESRVTISVDTSKNQFSLKLSSVTAADTAIYYCARGTDPDTEGYCRSGSCSAFDFWGQGTLVTVSS
VL: EIVLTQSPGTLSLSPGERATLSCRASHFVNYRSLAWYQQTPGQVPRLLIYGASTRATGIPDRFSGSGSGTDFTLTISRLEPEDFAVYFCQQYGGSPRYTFGQGTRLEIK
B6: TCN-531 (5091_H13) (antibody, V domains shown)
VH: EVQLVESGGDLVQPGRSLKLSCTGSGFTFGDYGVTWVRQAPGKGLEWVGFIRTRPWGGTADTAASVKGRFTISRDDSKSLAYLQMNSLKTEDTAVYYCCRDAPPNVEVASMTNWYFDLWGRGTLVTVSS
VL: DIQLTQSPSSLSASVGDRVTITCRASQGILNCLAWYQQKPGKVPNLLMYAASTLQSGVPSRFSGSGFGTDFTLTISSLQPEDVATYYCQTYGGVSTFGGGTKVEIR
B7: TCN-542 (5079_A16) (antibody, V domains shown)
VH: QVQLQESGPGLVKPSQTLSLTCTVSGGSISSGNYYWNWVRQHPGKGLEWIGYIYYRGSTFYNPSLKSRVTISIDTSKNQFSLRLSSVTAADTAVYYCAKDTRSSLDNYQYGMDVWGQGTTVTVSS
VL: QTVVTQEPSLTVSPGGTVTLTCASSTGAVTSSYFPNWFQQKPGQAPRPLIYSTTIRHSWTPARFSGSLLGGKAALTLSGVQPEDEADYYCLLYSGGDPVAFGGGTKLTVL
B8: TCN-560 (5084_P10) (antibody, V domains shown)
VH: EVQLVESGGGLVQPGGSLRLSCAASGFIFRNYWMSWVRQAPGKGLEWVANIKQDGREKYYVDSLRGRVNISRDNAENSLYLHMNSLRVEDTAVYFCARARMVVVTGDGFDVWGHGTMVTVSS
VL: DIQMTQSPSSLSASVGDRVTITCRASQNIKRYFNWYQQKPGKAPKLLIYAASNLENGVPSRFSGSGSGTDFTLTISSLQPEDFATYYCQQSFSKSWTFGQGTNVDIK
B9: TCN-521 (3280_D18) (antibody, V domains shown)
VH: EVQLVQSGGGLVQPGGSLRLACVVSGFTVTSNYITWVRQAPGKGLEWVSVIYSHGRAYYSASVNGRFTISRHTSKNTVYLEMNSLRPEDTAVYYCAGGGLVGGYDEYFFDYWGQGTLATVSS
VL: ETVLTQSPGTLSLTPGERATLSCRVGQSVSGSHLAWYQQKPGQAPRLLIYGASSRATGIPDRFGGSVSGTDFTLTISRLEPEDSAVYYCQQYGDSRYTFGQGTKLEIK
B10: TCN-534 (5249_B02) (antibody, V domains shown)
VH: QVQLVQSGAEVKKPGSSVKVSCRESGGTFNGYTITWVRQAPGQGLEWMGGIIPMMGTVNYAQKLQGRVTITTDYFTKTAYMDLNNLRSEDTAMYYCVKIRYTGQQLLWGQGTLVTVSS
VL: DIQMTQSPSTLSASIGDRVTITCRASQSIASWLAWYQQKPGKAPKLLIYEAVNLESGVPSRFSGSGSGTDFTLTISSLQPDDFATYFCQHYGTISQTFGGGTKVEIK
B11: TCN-530 (5248_H10a) (antibody, V domains shown)
VH: QVQLVQSGAEVRKPGSSVKVSCKASGGPFMSYAIGWVRQAPGQGLEWMGGINPVFGRPHYAQKFQGRVTIATDDSTKTSYMELSSLTSEDTGMYYCASRYSRSSPGTFESWGQGTLVTVSS
VL: EIVMTQFPATLSVSPGERVTLSCRASQSVSNNLAWYQQKPGQPPRLLIYDASTRATGVPAKFSGTGSGTEFTLSISSLQSEDFAVYYCQQYHNWPPSYSFGLGTKLEIK
B12: TCN-564 (5256_A17b) (antibody, V domains shown)
VH: QVQLVQSGADVKKPGSSVTVSCKASGGSFSNYGINWVRQAPGQGLEWMGGIIPLINAPNYAPKFQGRVTITADMFSNIVSLQLTSLRTDDTAVYYCARRKMTTAIDYWGQGTLVTVSS
VL: QPVLSQPPSASASLGASVTLTCTLSSGFDNYQVAWYQQRPGKGPRFVMRVGNGGNVASKGDGIPDRFSVSGSGLNRYLTIKNIQEDDESDYYCGADHGSGNNFVSPYVFGGGTKLTVL
B13: TCN-533 (5256_A17a) (antibody, V domains shown)
VH: B12 VH
VL: QPVLTQPPSASASLGASVTLTCTLSSAYSNYKVDWYQQRPGKGPRFVMRVGTGGIVGSKGDGIPDRFSVLGSGLNRYLTIKNIQEEDESDYHCGADHGSGSNFVSPYVFGGGTKLTVL
B14: TCN-527 (5086_C06) (antibody, V domains shown)
VH: QVQLQESGPGLVKPSETLSLNCAVSGGSISNYYWSWIRQPPGKGLEWIGYISYNGRPKYNPSLTSRVTISVDTSKDQFSLELRSVTAADTALYYCARETRFGELLSPYDAFEIWGQGTMVTVSS
VL: DIQMTQSPSSLSASVGDRVTMTCRASQNIRSYLNWYQQRPGTAPKLLIYAASTLHSGVPSRFSGGGSGTDFTLTINNLQPEDFASYYCQQSYDNPQTFGQGTKVEIK
B15: TCN-526 (5084_C17) (antibody, V domains shown)
VH: EVLMVESGGGLVQPGGSVRLSCVASGFSFSSHWMTWVRQAPGKGLEWVANIEDDGGDKYYVDSVKGRFIISRDNAKNSVYLQMNSLRAEDTAVYFCARGSGSSDRSDYDPHYYYYLDVWGKGATVTVSS
VL: DIQLTQSPSSLSASVGDRVTITCRASQSISRYLNWYQQKPGKAPKLLLFAASTLLDGVPSRFSGSGSGTDFTLTISSLQPEDFATYYCQRNHSPSWTFGQGTRVEIK
B16: TCN-546 (5089_L08) (antibody, V domains shown)
VH: QVQLQQWGAGLLKPSETLSLTCGVYGGSLSDYYWSWIRQPPGKGLEWIGEINHSGGTNYNPSLKRRVTISVDTSKKQFSLKMNSVTAADTAVYYCARGTDPDTEVYCRAGNCAAFDFWGQGTLVTVSS
VL: EIVLTQSPGTLSLSPGERATLSCRASHFVIGRAVAWYQQKPGQAPRLLIYGASSRATGIPDRFSGSGSGTDFTLTISRLETEDFAVFYCQHYGSSPRYAFGQGTKLEIK
B17: TCN-543 (5081_G23) (antibody, V domains shown)
VH: QVHLVQSGAEVRKPGDSVKVSCKTSGYTFSTYPVAWVRQVPGQGLEWMGWISTYNGNTNFAQNFQGRVTLTTDTTTNTAYMEVRSLKFDDTAVYYCARVEGSYRDFWNNQNRFDPWGQGTLVTVSS
VL: SYVLTQPPSVSVAPGQTARISCGGSNIGGKSVHWYQQKPGQAPVLVVYDDSGRPSGIPERFSGSNSGDTATLTISRVEAGDEADYFCQVWDNFGGVFGTGTKVTVL
B18: TCN-535 (5246_P19) (antibody, V domains shown)
VH: QVQLVQSGSEVKKPGTSVKVSCTASGSVFTNYGISWVRQAPGQGLEWMGGIIPLFGAAKYAQKFQGRVTITADESTKTVYMELSRLTSKDTAIYFCAKAPRVYEYYFDQWGQGTPVTVSS
VL: EIVLTQSPGTLSLSPGERATLSCRASQSVSSSQLAWYQQKPGQAPRLIIYGASTRATGIPDRFSGSGSGTDFTLTIGRLEPEDFAVFFCQQYSTSPPTFGQGTKVDFK
B19: TCN-539 (5056_A08) (antibody, V domains shown)
VH: QVQLVESGGGVVQPGRSLRLSCAASEITFITYAMHWVRQAPGKGLEWVALISDDGSNKFYADSVKGRFTISRDNSKNTLYLQMNSLRAEDTAAYYCAREGVYFDSGTYRGYFDYWGQETLVTVSS
VL: EIVLTQSPATLSLSPGERATLSCRASQSVSSYLAWYQQKPGQAPRLLIYDASNRATGIPARFSGSGSGTDFTLTISSLEPEDFAVYYCQQRSHWPPITFGQGTRLEIK
B20: TCN-536 (5095_N01) (antibody, V domains shown)
VH: QVQLQQWGAGLLKPSETLSLTCAVYGGSFSVSGYYWSWIRQPPGRGLEWIGEISHGGSTNYNPSLKSRVTISVDTTKNQFSLRLSSVTAADTAVYYCARGTDPDTEVYCRVGNCAAFDYWGQGSLVTVSS
VL: EIILAQSPGTLSLSPGERATLSCRASQFVSTRSLAWYQQRPGQAPRLLIYGASSRATGIPDRFSGSGSGTDFTLTISRLEPEDFAVYYCQHYGYSPRYAFGQGSKVEIK
B21: TCN-544 (5082_A19) (antibody, V domains shown)
VH: QVQLQESGPGLVKPSETLSLTCTVSRGSIGHYFWSWIRQPPGKGLEWIGYISYSGSTKYNPSLRSRVTISVDTSKNQFSLNLNSVTATDTALYYCAREDYDILTGAGPGMEVWGQGTTVTVSS
VL: QSMLTQPPSASGTPGQRVTISCSGSSSNIGSNTVNWFKHLPGTAPKLLIYRNDLRPSGVPDRFSGSKSGTSASLAISGLQSEDEADYYCATWDDSLNGFYVFGTGTKVTVL

Each binder was assayed against hemagglutinin (HA) of influenza A/Japan/305/57 (H2N2) on whole virions (Influenza A virus A/Japan/305/1957(H2N2), UniProt P03451 16-562) (assay: ELISA; BCC supernatant on coated inactivated whole virions).

Binder | ELISA virus binding (OD450)
B1 | 2.82
B2 | 0.6
B3 | 1.23
B4 | 3.62
B5 | 0.06
B6 | 0.67
B7 | 0.08
B8 | 2.07
B9 | 3.1
B10 | 2.56
B11 | 1.73
B12 | 1.1
B13 | 1.1
B14 | 1.48
B15 | 0.07
B16 | 0.06
B17 | 3.62
B18 | 1.46
B19 | 0.06
B20 | 0.08
B21 | 0.07
